Measurements taken from the supplement of paper PMC7125110.
± gives the standard error. For some of these results: Fewer inactive variants are shown than the library holds.

B1: glmS ribozyme (parent)
chain: AUAAAAGCGCCAGAACUACAGAAAUGUAGUUGACGAGGAGGAGGUUUAUCGAAUUUUCGGCGGAUGCCUCCAAA

Columns and labels:
Settings in all cases: with glucosamine-6-phosphate
glucosamine-6-phosphate [1] = variants of: B1; assay: kcat; higher = faster cleavage; RNA array
Method in brief: (§1)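 Barcoded ribozyme variants, transcribed in situ by E. coli RNA polymerase on sequenced MiSeq chips, were followed via a hybridised Cy3 probe at 37 °C. Glucosamine-6-phosphate ranged from 40 μM to 10 mM in HEPES/KCl/Mg(OAc)2 buffer. kobs came from decay fits to per-tile medians, and kcat and KM from weighted Michaelis–Menten fits.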

glucosamine-6-phosphate [2] = variants of: B1; assay: KM; higher = weaker cofactor use; RNA array
Method in brief: as §1

glucosamine-6-phosphate [3] = variants of: B1; assay: self-cleavage kobs at 40 uM GlcN6P; higher = faster cleavage; RNA array
Method in brief: as §1

glucosamine-6-phosphate [4] = variants of: B1; assay: self-cleavage kobs at 160 uM GlcN6P; higher = faster cleavage; RNA array
Method in brief: as §1

glucosamine-6-phosphate [5] = variants of: B1; assay: self-cleavage kobs at 640 uM GlcN6P; higher = faster cleavage; RNA array
Method in brief: as §1

glucosamine-6-phosphate [6] = variants of: B1; assay: self-cleavage kobs at 2500 uM GlcN6P; higher = faster cleavage; RNA array
Method in brief: as §1

glucosamine-6-phosphate [7] = variants of: B1; assay: self-cleavage kobs at 10000 uM GlcN6P; higher = faster cleavage; RNA array
Method in brief: as §1

Variant | kcat (glucosamine-6-phosphate [1]) [s⁻¹] | KM (glucosamine-6-phosphate [2]) [µM] | self-cleavage kobs at 40 uM GlcN6P (glucosamine-6-phosphate [3]) [s⁻¹] | self-cleavage kobs at 160 uM GlcN6P (glucosamine-6-phosphate [4]) [s⁻¹] | self-cleavage kobs at 640 uM GlcN6P (glucosamine-6-phosphate [5]) [s⁻¹] | self-cleavage kobs at 2500 uM GlcN6P (glucosamine-6-phosphate [6]) [s⁻¹] | self-cleavage kobs at 10000 uM GlcN6P (glucosamine-6-phosphate [7]) [s⁻¹]
U65G C67U | 0.00306 ± 0.00057 | 3590 ± 950 | 3.92e-05 ± 7.9e-06 | 0.000142 ± 1.8e-05 | 0.000459 ± 5.7e-05 | 0.00101 ± 0.00014 | 0.00248 ± 0.00025
C10G C67A | 2.45e-05 ± 7.2e-06 |  |  |  |  |  | 
C10G C50A C71U | 1.87e-05 ± 3.4e-06 |  |  |  |  |  | < 1e-05
U49G C68U | 0.000145 ± 1.9e-05 | 862 ± 360 |  | 5.03e-05 ± 2.2e-05 | 6.17e-05 ± 1.2e-05 | 9.44e-05 ± 1.6e-05 | 0.000144 ± 1.8e-05
A48U C70G | 3.29e-05 ± 1e-05 |  |  |  | 3.69e-05 ± 1.1e-05 | 4.89e-05 ± 9.2e-06 | 
C11G A12C | 0.000156 ± 3.2e-05 |  |  |  |  | 6.61e-05 ± 1.2e-05 | 0.00011 ± 1.3e-05
U31G G32C | 0.000616 ± 8.5e-05 | 5520 ± 1100 |  |  | 6.65e-05 ± 1.1e-05 | 0.000186 ± 2.9e-05 | 0.000405 ± 8.2e-05
A39C U56A | 0.00331 ± 0.00086 | 4000 ± 1500 | 5.87e-05 ± 1.3e-05 | 0.000129 ± 3.6e-05 | 0.000412 ± 5.2e-05 | 0.00133 ± 0.00019 | 0.00238 ± 0.00034
U47C C50A | 3.31e-05 ± 5.7e-06 | 3090 ± 1500 |  |  |  |  | 
A52C U69A | 1.76e-05 ± 5.9e-06 |  |  |  |  |  | 
U49A C67U | < 1e-05 |  | < 1e-05 |  |  |  | < 1e-05
G32U C71U | 0.00136 ± 0.0003 | 5540 ± 1700 |  | 6.14e-05 ± 1.3e-05 | 0.000146 ± 1.1e-05 | 0.00037 ± 3.3e-05 | 0.000927 ± 7.7e-05
A14U A48G | 1.29e-05 ± 5.7e-06 |  |  | < 1e-05 |  |  | 
A14C A53G C58A C70G | 3.76e-05 ± 1.2e-05 |  |  | 5.16e-05 ± 2e-05 |  |  | 
C67A | 0.0168 ± 0.0027 | 1730 ± 380 | 0.000434 ± 1.5e-05 | 0.00132 ± 8.4e-05 | 0.004 ± 0.00015 | 0.0101 ± 0.00044 | 0.0155 ± 0.00076
G43A A53G | 8.84e-05 ± 2.5e-05 |  |  |  |  | 0.000132 ± 2.8e-05 | 7.56e-05 ± 8.5e-06
G32A U56A | 0.000939 ± 0.0002 | 5360 ± 1600 |  | 4.57e-05 ± 1.5e-05 | 9.47e-05 ± 1.5e-05 | 0.000295 ± 4.3e-05 | 0.000619 ± 9.9e-05
U49C C58G | < 1e-05 |  |  |  |  |  | < 1e-05
C68G U69A | 1.57e-05 ± 5.7e-06 |  |  |  |  |  | 

Variant | kcat (glucosamine-6-phosphate [1]) [s⁻¹] | KM (glucosamine-6-phosphate [2]) [µM] | self-cleavage kobs at 40 uM GlcN6P (glucosamine-6-phosphate [3]) [s⁻¹] | self-cleavage kobs at 160 uM GlcN6P (glucosamine-6-phosphate [4]) [s⁻¹] | self-cleavage kobs at 640 uM GlcN6P (glucosamine-6-phosphate [5]) [s⁻¹] | self-cleavage kobs at 2500 uM GlcN6P (glucosamine-6-phosphate [6]) [s⁻¹] | self-cleavage kobs at 10000 uM GlcN6P (glucosamine-6-phosphate [7]) [s⁻¹]
G7C A53G | < 1e-05 |  |  |  |  |  | < 1e-05
U30C C68U | 0.000128 ± 8.6e-06 | 1210 ± 270 |  |  | 4.07e-05 ± 6.8e-06 | 9.82e-05 ± 1.1e-05 | 0.000111 ± 8.5e-06
G32U C71G | 0.000107 ± 7.3e-06 | 741 ± 280 |  |  | 6.13e-05 ± 1.6e-05 | 7.51e-05 ± 9.8e-06 | 0.000102 ± 8.2e-06
A39G U57C | 0.000566 ± 0.0002 |  | < 1e-05 |  | 5.87e-05 ± 1.5e-05 | 0.00013 ± 2.3e-05 | 0.000351 ± 6.4e-05
A15U A39U | 0.00466 ± 0.00041 | 2280 ± 280 | 8.33e-05 ± 9.7e-06 | 0.000251 ± 5.5e-05 | 0.0011 ± 0.00013 | 0.00233 ± 0.00043 | 0.0038 ± 0.0004
U31C G32A C58A U65G | 4.59e-05 ± 1e-06 | 2320 ± 190 |  |  |  |  | 3.72e-05 ± 1.4e-05
G29A U54A | 0.00945 ± 0.0024 | 3150 ± 1100 | 0.000135 ± 2.1e-05 |  | 0.0011 ± 0.00037 | 0.00422 ± 0.00084 | 0.00745 ± 0.0014
A48U C70A | 1.64e-05 ± 7.1e-06 |  |  |  |  | 3.28e-05 ± 1.6e-05 | 
A6U C16G | 5.15e-05 ± 3.5e-06 | 3290 ± 720 |  |  |  | 2.28e-05 ± 1e-05 | 3.87e-05 ± 6.9e-06
G60U C67A | < 1e-05 |  | < 1e-05 | < 1e-05 |  | < 1e-05 | 
G13U U30A | 5.44e-05 ± 3.6e-06 | 728 ± 260 |  |  | 3.03e-05 ± 1.5e-05 | 3.78e-05 ± 1.1e-05 | 5.22e-05 ± 8.6e-06
A12C U30A | 0.00751 ± 0.0021 | 7100 ± 2600 | 5.95e-05 ± 1.5e-05 | 0.000144 ± 3e-05 | 0.000745 ± 0.0002 | 0.0017 ± 0.00056 | 0.00447 ± 0.00074
A14U U46A | 0.000437 ± 0.0001 | 2000 ± 930 |  | 2.43e-05 ± 9.4e-06 | 9.67e-05 ± 1.3e-05 | 0.000343 ± 3.4e-05 | 0.000323 ± 3.5e-05
A15U C50G A53U U55A | 3.35e-05 ± 1.6e-05 |  |  |  |  | 4.02e-05 ± 1.8e-05 | 
A14C C16G A53U | 2.08e-05 ± 7.9e-07 | 1700 ± 260 |  |  |  |  | 
C58G C61A | 1.85e-05 ± 4e-06 |  |  |  |  |  | 
C16G A53U | 0.00332 ± 0.00045 | 1910 ± 380 | 8.15e-05 ± 1.4e-05 | 0.000238 ± 6e-05 | 0.000752 ± 0.00012 | 0.00182 ± 0.0004 | 0.00295 ± 0.00047
A14C A33U | 3.55e-05 ± 2.4e-06 | 994 ± 450 |  |  |  |  | 3.21e-05 ± 7.6e-06
